According to patent US20220168396A1, “MULTI-RECEPTOR AGONIST AND MEDICAL USE THEREOF” (published 2022):
Square brackets hold non-standard residues; d marks the D form. Ends that are not written are not given here. Aib = CC(C)(N)C(=O)O

Assays:
[1] = target: T1, human glucose-dependent insulinotropic peptide receptor (human, UniProt P48546); experiment: cell-based or functional assay
T1 sequence: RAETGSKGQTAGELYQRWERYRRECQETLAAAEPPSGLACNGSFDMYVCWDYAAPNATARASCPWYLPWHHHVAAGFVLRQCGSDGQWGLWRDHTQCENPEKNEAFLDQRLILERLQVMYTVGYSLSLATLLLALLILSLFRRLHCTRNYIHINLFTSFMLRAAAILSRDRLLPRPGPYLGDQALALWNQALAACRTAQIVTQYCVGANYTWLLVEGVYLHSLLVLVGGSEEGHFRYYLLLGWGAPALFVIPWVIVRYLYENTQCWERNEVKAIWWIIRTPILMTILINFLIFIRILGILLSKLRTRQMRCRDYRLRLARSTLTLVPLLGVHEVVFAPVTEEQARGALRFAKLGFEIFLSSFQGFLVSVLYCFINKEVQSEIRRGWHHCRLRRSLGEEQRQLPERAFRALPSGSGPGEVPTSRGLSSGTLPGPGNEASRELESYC

[2] = target: human glucagon-like peptide-1 receptor (human, UniProt P43220); experiment: cell-based or functional assay

B1: Compound No. 6 (peptide)
peptide: Y[Aib]EGTFTSDVSSYLEEEAAKEFVNWLLAGGPSSGAPPPSK-NH2
modifications: N-terminus assumed
SMILES: CC(C)C[C@H](NC(=O)[C@H](CC(C)C)NC(=O)[C@H](Cc1c[nH]c2ccccc12)NC(=O)[C@H](CC(N)=O)NC(=O)[C@@H](NC(=O)[C@H](Cc1ccccc1)NC(=O)[C@H](CCC(=O)O)NC(=O)[C@H](CCCCN)NC(=O)[C@H](C)NC(=O)[C@H](C)NC(=O)[C@H](CCC(=O)O)NC(=O)[C@H](CCC(=O)O)NC(=O)[C@H](CCC(=O)O)NC(=O)[C@H](CC(C)C)NC(=O)[C@H](Cc1ccc(O)cc1)NC(=O)[C@H](CO)NC(=O)[C@H](CO)NC(=O)[C@@H](NC(=O)[C@H](CC(=O)O)NC(=O)[C@H](CO)NC(=O)[C@@H](NC(=O)[C@H](Cc1ccccc1)NC(=O)[C@@H](NC(=O)CNC(=O)[C@H](CCC(=O)O)NC(=O)C(C)(C)NC(=O)[C@@H](N)Cc1ccc(O)cc1)[C@@H](C)O)[C@@H](C)O)C(C)C)C(C)C)C(=O)N[C@@H](C)C(=O)NCC(=O)NCC(=O)N1CCC[C@H]1C(=O)N[C@@H](CO)C(=O)N[C@@H](CO)C(=O)NCC(=O)N[C@@H](C)C(=O)N1CCC[C@H]1C(=O)N1CCC[C@H]1C(=O)N1CCC[C@H]1C(=O)N[C@@H](CO)C(=O)N[C@@H](CCCCN)C(N)=O
Activity for human GIPR (EC50 nM), cAMP HTRF [1]: 2.1 nM
Activity for human GLP-1R (EC50 nM), cAMP HTRF [2]: 0.128 nM

B2: Compound No. 10 (peptide)
peptide: Y[Aib]EGTFTSDYSIYLEKEAAQEFVNWLLAGGPSSGAPPPSK-NH2
modifications: N-terminus assumed
SMILES: CC[C@H](C)[C@H](NC(=O)[C@H](CO)NC(=O)[C@H](Cc1ccc(O)cc1)NC(=O)[C@H](CC(=O)O)NC(=O)[C@H](CO)NC(=O)[C@@H](NC(=O)[C@H](Cc1ccccc1)NC(=O)[C@@H](NC(=O)CNC(=O)[C@H](CCC(=O)O)NC(=O)C(C)(C)NC(=O)[C@@H](N)Cc1ccc(O)cc1)[C@@H](C)O)[C@@H](C)O)C(=O)N[C@@H](Cc1ccc(O)cc1)C(=O)N[C@@H](CC(C)C)C(=O)N[C@@H](CCC(=O)O)C(=O)N[C@@H](CCCCN)C(=O)N[C@@H](CCC(=O)O)C(=O)N[C@@H](C)C(=O)N[C@@H](C)C(=O)N[C@@H](CCC(N)=O)C(=O)N[C@@H](CCC(=O)O)C(=O)N[C@@H](Cc1ccccc1)C(=O)N[C@H](C(=O)N[C@@H](CC(N)=O)C(=O)N[C@@H](Cc1c[nH]c2ccccc12)C(=O)N[C@@H](CC(C)C)C(=O)N[C@@H](CC(C)C)C(=O)N[C@@H](C)C(=O)NCC(=O)NCC(=O)N1CCC[C@H]1C(=O)N[C@@H](CO)C(=O)N[C@@H](CO)C(=O)NCC(=O)N[C@@H](C)C(=O)N1CCC[C@H]1C(=O)N1CCC[C@H]1C(=O)N1CCC[C@H]1C(=O)N[C@@H](CO)C(=O)N[C@@H](CCCCN)C(N)=O)C(C)C
Activity for human GIPR (EC50 nM), cAMP HTRF [1]: 0.006 nM
Activity for human GLP-1R (EC50 nM), cAMP HTRF [2]: 0.097 nM

B3: Compound No. 9 (peptide)
peptide: Y[Aib]EGTFTSDYSIYLEKEAAKEFVNWLLAGGPSSGAPPPSK-NH2
modifications: N-terminus assumed
SMILES: CC[C@H](C)[C@H](NC(=O)[C@H](CO)NC(=O)[C@H](Cc1ccc(O)cc1)NC(=O)[C@H](CC(=O)O)NC(=O)[C@H](CO)NC(=O)[C@@H](NC(=O)[C@H](Cc1ccccc1)NC(=O)[C@@H](NC(=O)CNC(=O)[C@H](CCC(=O)O)NC(=O)C(C)(C)NC(=O)[C@@H](N)Cc1ccc(O)cc1)[C@@H](C)O)[C@@H](C)O)C(=O)N[C@@H](Cc1ccc(O)cc1)C(=O)N[C@@H](CC(C)C)C(=O)N[C@@H](CCC(=O)O)C(=O)N[C@@H](CCCCN)C(=O)N[C@@H](CCC(=O)O)C(=O)N[C@@H](C)C(=O)N[C@@H](C)C(=O)N[C@@H](CCCCN)C(=O)N[C@@H](CCC(=O)O)C(=O)N[C@@H](Cc1ccccc1)C(=O)N[C@H](C(=O)N[C@@H](CC(N)=O)C(=O)N[C@@H](Cc1c[nH]c2ccccc12)C(=O)N[C@@H](CC(C)C)C(=O)N[C@@H](CC(C)C)C(=O)N[C@@H](C)C(=O)NCC(=O)NCC(=O)N1CCC[C@H]1C(=O)N[C@@H](CO)C(=O)N[C@@H](CO)C(=O)NCC(=O)N[C@@H](C)C(=O)N1CCC[C@H]1C(=O)N1CCC[C@H]1C(=O)N1CCC[C@H]1C(=O)N[C@@H](CO)C(=O)N[C@@H](CCCCN)C(N)=O)C(C)C
Activity for human GIPR (EC50 nM), cAMP HTRF [1]: 0.018 nM
Activity for human GLP-1R (EC50 nM), cAMP HTRF [2]: 0.011 nM

B4: Compound No. 4 (peptide)
peptide: Y[Aib]EGTFTSDVSSYLEEIHQKEFIAWLVRGGPSSGAPPPSK-NH2
modifications: N-terminus assumed
SMILES: CC[C@H](C)[C@H](NC(=O)[C@H](Cc1ccccc1)NC(=O)[C@H](CCC(=O)O)NC(=O)[C@H](CCCCN)NC(=O)[C@H](CCC(N)=O)NC(=O)[C@H](Cc1c[nH]cn1)NC(=O)[C@@H](NC(=O)[C@H](CCC(=O)O)NC(=O)[C@H](CCC(=O)O)NC(=O)[C@H](CC(C)C)NC(=O)[C@H](Cc1ccc(O)cc1)NC(=O)[C@H](CO)NC(=O)[C@H](CO)NC(=O)[C@@H](NC(=O)[C@H](CC(=O)O)NC(=O)[C@H](CO)NC(=O)[C@@H](NC(=O)[C@H](Cc1ccccc1)NC(=O)[C@@H](NC(=O)CNC(=O)[C@H](CCC(=O)O)NC(=O)C(C)(C)NC(=O)[C@@H](N)Cc1ccc(O)cc1)[C@@H](C)O)[C@@H](C)O)C(C)C)[C@@H](C)CC)C(=O)N[C@@H](C)C(=O)N[C@@H](Cc1c[nH]c2ccccc12)C(=O)N[C@@H](CC(C)C)C(=O)N[C@H](C(=O)N[C@@H](CCCNC(=N)N)C(=O)NCC(=O)NCC(=O)N1CCC[C@H]1C(=O)N[C@@H](CO)C(=O)N[C@@H](CO)C(=O)NCC(=O)N[C@@H](C)C(=O)N1CCC[C@H]1C(=O)N1CCC[C@H]1C(=O)N1CCC[C@H]1C(=O)N[C@@H](CO)C(=O)N[C@@H](CCCCN)C(N)=O)C(C)C
Activity for human GIPR (EC50 nM), cAMP HTRF [1]: > 10 nM
Activity for human GLP-1R (EC50 nM), cAMP HTRF [2]: 0.43 nM

B5: Compound No. 8 (peptide)
peptide: Y[Aib]EGTFTSDVSIYLEKEAAEEFVNWLLAGGPSSGAPPPSK-NH2
modifications: N-terminus assumed
SMILES: CC[C@H](C)[C@H](NC(=O)[C@H](CO)NC(=O)[C@@H](NC(=O)[C@H](CC(=O)O)NC(=O)[C@H](CO)NC(=O)[C@@H](NC(=O)[C@H](Cc1ccccc1)NC(=O)[C@@H](NC(=O)CNC(=O)[C@H](CCC(=O)O)NC(=O)C(C)(C)NC(=O)[C@@H](N)Cc1ccc(O)cc1)[C@@H](C)O)[C@@H](C)O)C(C)C)C(=O)N[C@@H](Cc1ccc(O)cc1)C(=O)N[C@@H](CC(C)C)C(=O)N[C@@H](CCC(=O)O)C(=O)N[C@@H](CCCCN)C(=O)N[C@@H](CCC(=O)O)C(=O)N[C@@H](C)C(=O)N[C@@H](C)C(=O)N[C@@H](CCC(=O)O)C(=O)N[C@@H](CCC(=O)O)C(=O)N[C@@H](Cc1ccccc1)C(=O)N[C@H](C(=O)N[C@@H](CC(N)=O)C(=O)N[C@@H](Cc1c[nH]c2ccccc12)C(=O)N[C@@H](CC(C)C)C(=O)N[C@@H](CC(C)C)C(=O)N[C@@H](C)C(=O)NCC(=O)NCC(=O)N1CCC[C@H]1C(=O)N[C@@H](CO)C(=O)N[C@@H](CO)C(=O)NCC(=O)N[C@@H](C)C(=O)N1CCC[C@H]1C(=O)N1CCC[C@H]1C(=O)N1CCC[C@H]1C(=O)N[C@@H](CO)C(=O)N[C@@H](CCCCN)C(N)=O)C(C)C
Activity for human GIPR (EC50 nM), cAMP HTRF [1]: 0.12 nM
Activity for human GLP-1R (EC50 nM), cAMP HTRF [2]: 0.07 nM

B6: Compound No. 5 (peptide)
peptide: H[Aib]EGTFTSDVSSYLEEEAAKEFVNWLLAGGPSSGAPPPSK-NH2
modifications: N-terminus assumed
SMILES: CC(C)C[C@H](NC(=O)[C@H](CC(C)C)NC(=O)[C@H](Cc1c[nH]c2ccccc12)NC(=O)[C@H](CC(N)=O)NC(=O)[C@@H](NC(=O)[C@H](Cc1ccccc1)NC(=O)[C@H](CCC(=O)O)NC(=O)[C@H](CCCCN)NC(=O)[C@H](C)NC(=O)[C@H](C)NC(=O)[C@H](CCC(=O)O)NC(=O)[C@H](CCC(=O)O)NC(=O)[C@H](CCC(=O)O)NC(=O)[C@H](CC(C)C)NC(=O)[C@H](Cc1ccc(O)cc1)NC(=O)[C@H](CO)NC(=O)[C@H](CO)NC(=O)[C@@H](NC(=O)[C@H](CC(=O)O)NC(=O)[C@H](CO)NC(=O)[C@@H](NC(=O)[C@H](Cc1ccccc1)NC(=O)[C@@H](NC(=O)CNC(=O)[C@H](CCC(=O)O)NC(=O)C(C)(C)NC(=O)[C@@H](N)Cc1c[nH]cn1)[C@@H](C)O)[C@@H](C)O)C(C)C)C(C)C)C(=O)N[C@@H](C)C(=O)NCC(=O)NCC(=O)N1CCC[C@H]1C(=O)N[C@@H](CO)C(=O)N[C@@H](CO)C(=O)NCC(=O)N[C@@H](C)C(=O)N1CCC[C@H]1C(=O)N1CCC[C@H]1C(=O)N1CCC[C@H]1C(=O)N[C@@H](CO)C(=O)N[C@@H](CCCCN)C(N)=O
Activity for human GIPR (EC50 nM), cAMP HTRF [1]: > 10 nM
Activity for human GLP-1R (EC50 nM), cAMP HTRF [2]: 0.004 nM
